# Measured values from patent US20060210570A1 (Genentech, published 2006).
# Residue numbers refer to the chain shown, from its start. In names and notes the source's numbering stands.
# B1: sHAI-1B(K401A) (other, human, UniProt O43278 36-465, looked up)
# chain: GPPPAPPGLPAGADCLNSFTAGVPGFVLDTNASVSNGATFLESPTVRRGWDCVRACCTTQNCNLALVELQPDRGEDAIAACFLINCLYEQNFVCKFAPREGFINYLTREVYRSYRQLRTQGFGGSGIPKAWAGIDLKVQPQEPLVLKDVENTDWRLLRGDTDVRVERKDPNQVELWGLKEGTYLFQLTVTSSDHPEDTANVTVTVLSTKQTEDYCLASNKVGRCRGSFPRWYYDPTEQICKSFVYGGCLGNKNNYLREEECILACRGVQGGPLRGSSGAQATFPQGPSMERRHPVCSGTCQPTQFRCSNGCCIDSFLECDDTPNCPDASDEAACEKYTSGFDELQRIHFPSDKGHCVDLPDTGLCAESIPRWYYNPFSEHCARFTYGGCYGNKNNFEEEQQCLESCRGISKKDVFGLRREIPIPSTGSVE
# B2: sHAI-1B(R260A) (other, human, UniProt O43278 36-465, looked up)
# chain: B1 chain with R225A, A366K
# B3: prostasin (recombinant human, soluble, active two-chain form purified from conditioned medium of CHO cells transfected with full-length prostasin) (enzyme)
# chain: not shown
# notes: also called purified prostasin; soluble prostasin
# Key:
# [1] = target: B3; test: cell-based or functional assay
# [2] = target: B3; test: cell-based or functional assay; remark: listed apart in the source
# sHAI-1B(K401A) = target: B1; test: prostasin incubated with 20 nM mutant sHAI-1B, immunoblot (FIG. 2B)
# Experimental: (§1) FIG. 2. […] Prostasin of indicated concentration was incubated with 20 nM wildtype sHAI-1B (A) or mutant sHAI-1B (B) at 37° C. for 0.5 or 2 h. The reactions were stopped by addition of SDS sample buffer with DTT. 30 μl of each sample was boiled or not boiled (as indicated) followed by immunoblotting analysis using anti-HAI-1B polyclonal antibody.
# (§2) Prostasin was incubated with sHAI-1B comprising the entire extracellular domain of HAI-1B (Kirchhofer, Peek et al. 2003) at different molar ratios (FIG.2A).
# aprotinin = aprotinin (UniProt P00974 36-93); test: affinity chromatography of prostasin on immobilised aprotinin
# sHAI-1B(R260A) = target: B2; test: incubation at 37 C, SDS-PAGE and immunoblot with anti-HAI-1B polyclonal antibody
# Experimental: as §1, §2
Binder,"IC50 (nM), inhibition of prostasin amidolytic activity towards S2765 [1]",fold less potent than wildtype sHAI-1B in the prostasin inhibition assay [2],inhibitory activity of KD2 relative to KD1 in prostasin enzymatic assays [2],binding result (sHAI-1B(K401A)),binding result (aprotinin),binding result (sHAI-1B(R260A))
B1,75.3 nM,–,–,–,–,–
B2,> 1000 nM,≥ 18 fold,< 6%,–,–,–
B3,–,–,–,binds,binds,no binding
